Measurements taken from patent publication US8173771B2, “Humanin receptor or humanin-like polypeptide receptor” (Keio Univeristy, priority 2005, dated 2012).

Biological target: T1, G-CSFR/gp130 chimera proteins (Homo sapiens, UniProt P40189+Q99062)
T1 construct: the extracellular domain of the human G-CSF receptor fused to the full transmembrane domain; expressed in transfected cells; host or cells: F11 cells
T1 sequence (Q99062+P40189 with tags, fused parts or gaps): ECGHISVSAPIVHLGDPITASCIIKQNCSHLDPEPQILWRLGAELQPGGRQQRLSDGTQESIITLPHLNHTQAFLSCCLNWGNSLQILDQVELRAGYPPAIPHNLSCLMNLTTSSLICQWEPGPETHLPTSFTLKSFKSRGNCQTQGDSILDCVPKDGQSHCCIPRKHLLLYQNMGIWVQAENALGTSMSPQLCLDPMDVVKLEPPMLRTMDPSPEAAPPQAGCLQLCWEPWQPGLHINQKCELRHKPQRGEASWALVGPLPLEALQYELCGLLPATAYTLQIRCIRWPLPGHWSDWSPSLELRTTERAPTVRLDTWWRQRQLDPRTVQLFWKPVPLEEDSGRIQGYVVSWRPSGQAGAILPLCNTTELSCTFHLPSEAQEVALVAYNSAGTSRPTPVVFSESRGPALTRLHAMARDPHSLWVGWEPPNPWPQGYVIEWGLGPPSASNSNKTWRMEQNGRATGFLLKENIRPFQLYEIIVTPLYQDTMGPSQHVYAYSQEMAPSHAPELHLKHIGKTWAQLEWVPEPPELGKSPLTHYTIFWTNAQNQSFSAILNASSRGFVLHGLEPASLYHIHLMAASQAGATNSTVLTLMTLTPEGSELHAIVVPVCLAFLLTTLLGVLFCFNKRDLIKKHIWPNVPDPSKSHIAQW
Test: G-CSF stimulation of G-CSFR/gp130 chimera proteins in F11 cells, cell mortality by Trypan blue exclusion
Type: cell-based
Settings: 100 nM; G-25 expressed
Description: B) F11 cells were transfected with 0.5 μg of the pcDNA3 vector or pcDNA3-APP in association with 0.5 μg of the pEFBos vector or the pEFBos vectors encoding the extracellular domain of the human G-CSF receptor fused to the full transmembrane domain and a C-terminally truncated intracytoplasmic domain of gp130 (named “G-CSFR/gp130”). G-CSFR/gp130 (277) contains the full intracytoplasmic domain of gp130 corresponding to amino acids 1-277, while G-CSFR/gp130 (25), (68), and (133) contain the intracytoplasmic domains corresponding to amino acids 1-25, 1-68, and 1-133, respectively. At 24 hr after transfection, the cells were added with indicated amounts of human G-CSF. Cell mortality was determined by Trypan blue exclusion assay at 72 hr after transfection. The results of immunoblot analysis of the expression of […] are shown in photos.
C) Instead of the pcDNA3-V6421-APP vector, pcDNA3-K595 N/M596L-APP (NL-APP), M146L-PS1 and N141-I-PS2 vectors were used to do the same experiments as in FIG. 2A. The results of immunoblot analysis of the expression of NL-APP, M146L-PS1 and N141-I-PS2 are shown in photos.
D) F11 cells were transfected with 0.5 μg of the pEFBos vector or pEF-G85R-SOD1 in association with 0.5 μg of the pEFBos vector or each pEFBos vector encoding G-CSFR/gp130 (277) or G-CSFR/gp130 (25). At 24 hr after transfection, the cells were added with indicated amounts of human G-CSF. Cell mortality was determined by Trypan blue exclusion assay at 72 hr after transfection. The results of the expression of G85R-SOD1, which were confirmed by the immunoblot analysis, are shown in photos.
Neurohybrid F11 cells and pcDNA3 vectors encoding V642I-APP, K595N/M596L-APP (NL-APP), M146L-PS1, and N141I-PS2 cDNA were prepared as already described (Hashimoto et al, 2000, 2001a, 2003). pCAG-human gp130 and pCAG-human gp130 ED (the extracellular domain of human gp130) were prepared as described (Kumanogoh et al., 1997). pcDNA3 vectors encoding the extracellular domain of the G-CSF receptor fused to the full-length transmembrane domain and various portions of the intracellular domains of human gp130, were prepared as described (Fukada et al, 1996). The intracellular domain of gp130 was C-terminally truncated. A chimera protein named G-277 contained a 277 amino acid-long full intracellular domain of gp130 (SEQ ID NO:35), while G-195, G-133, G-68, and G-25 contained the amino acids 1-195 (SEQ ID NO:36), 1-133 (SEQ ID NO:37), 1-68 (SEQ ID NO:38), and 1-25 (SEQ ID NO:39) intracellular portions, respectively. C-terminally myc-tagged human WSX-1 and myc-tagged mouse CREME9 cDNAs were amplified from human and mouse embryo cDNA (BioChain) by PCR using sets of sense primers and antisense primers: 5′-[…]-3′ (SEQ ID NO:3) and 5′-[…]-3′ (SEQ ID NO:4) for human WSX-1; 5′-[…]-3′ (SEQ ID NO:5); and 5′-[…]-3′ (SEQ ID NO:6) for mouse CREME9. Plasmids encoding C-terminally V5-tagged human CNTF-R (V %-CNTF-R) and rat IL-6R (pUCM18-rat IL-6R) were purchased from Invitrogen and American Culture Collection, respectively. A pEFBos vector comprising familial ALS (FALS) gene G85R-SOD1 was kindly provided by Dr. Shoji Tsuji. Cosmid of human wild […] was constructed by inserting a full-length gp130 into a SwaI site of pAxCAwt (TaKaRa).
The transfection procedures were as described (Hashimoto et al, 2000, 2001a, 2003). F11 cells, seeded at 7×10^4/well in 6-well dishes, were transfected with indicated vectors. Transfection efficiency in these protocols has been determined to be invariably around 70%. At 72 hrs after transfection, the Trypan blue exclusion assay and LDH assay were performed as a cell-death assay and the WST-8 assay was performed as cell-viability assays (Hashimoto et al, 2000, 2001a b, 2003). HN was added to the culture medium usually at 5 hrs after transfection, but in some cases at 24 hrs after transfection.

B1: G-CSF: human G-CSF, ligand stimulating G-CSFR/gp130 chimera proteins (protein, UniProt P09919 31-207, looked up)
Granulocyte …: TPLGPASSLPQSFLLKCLEQVRKIQGDGAALQEKLVSECATYKLCHPEELVLLGHSLGIPWAPLSSCPSQALQLAGCLSQLHSGLFLYQGLLQALEGISPELGPTLDTLQLDVADFATTIWQQMEELGMAPALQPTQGAMPAFASAFQRRAGGVLVASHLQSFLEVSYRVLRHLAQP
B1 was tested, and the “prevention of NL-APP-, M146L-PS1-, N141I-PS2-mediated neuronal cell death” value was “not”.
